In patent US20040131613A1 (published 2004):

Target: T1, human TNF-α (human, UniProt P01375 77-233)
T1 construct: It was biotinylated in the plaque lift and on-rate ELISA, and coated on plates or beads in the other assays; also called hTNF-α; hTNF
Assay: kinetic exclusion assay (KinExA 3000), 40 pM Fab with 400 pM hTNF-α, time course
Experimental: Next, binding kinetics of three of the Fab fragments described in Table 4 were determined in a kinetic exclusion assay. Affinity measurements were performed on a KinExA™3000 instrument (Sapidyne Instruments, Inc., Boise, Id.) using Fab fragments (A10K, A9K, and A10P) released from the periplasmic space whose concentration was determined by a quantitative ELISA. Briefly, antigen and antibody fragment were allowed to react in solution and the fraction of unbound reagent was determined by capture and measured on a bead support. Binding kinetics can be determined or calculated from the amount of unbound reagent. For instance, after interaction between TNF-α and a Fab fragment has occurred in solution, binding of the unreacted, free Fab fragment to TNF-α coated beads can be measured on the instrument by detection with a labeled secondary antibody to the Fab fragment (e.g., a goat anti-IgG (heavy and light)). […] After the incubation, the amount of unbound Fab in the equilibrated samples was determined on the KinExA™3000 instrument according to the manufacturer's instructions. Kd values were determined by the instrument software.
To measure kₒₙ, individual Fab fragments at a concentration of 40 pM were mixed with 400 pM of hTNF-α. […] The resulting data was used to calculate the kₒₙ with the instrument software. koff was calculated by using the formula Kd=koff/kₒₙ.

T1 sequence (P01375 77-233 limits assumed): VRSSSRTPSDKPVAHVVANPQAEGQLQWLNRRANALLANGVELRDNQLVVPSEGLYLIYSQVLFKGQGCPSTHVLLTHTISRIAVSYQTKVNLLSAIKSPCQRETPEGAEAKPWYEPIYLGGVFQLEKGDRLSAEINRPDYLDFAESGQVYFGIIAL

kon: 3.92e+06 to 7.51e+06 M⁻¹ s⁻¹
B1: A10K Fab fragment (Fab, V domains shown)
VH: EVQLVESGGGLVQPGGSLRLSCAASGFKFSNHWMNWVRQAPGKGLEWVGEIRSKSMNSATHYAESVKGRFTISRDDSKNSLYLQMNSLKTEDTAVYYCARNYYGSTYDHWGQGTLVTVSS
VL: EIVLTQSPDFQSVTPKEKVTITCRASQFVGYSIHWYQQKPDQSPKLLIKYASESRSGVPSRFSGSGSGTDFTLTINSLEAEDAATYYCQQSHSWHFTFGQGTKVEIK
notes: Fab released from the E. coli periplasm; The light chain is kappa, since it was detected with anti-human kappa; Mutations against hu1: light S31Y, M55R
